Source: patent JP2020002075A

Key:
[1] = target: ポドプラニン (ポドプラニン提示CHO細胞, 種の記載なし); experiment: flow cytometry; cells and species not named at this place
[2] = target: ポドプラニン (ポドプラニン提示CHO細胞, 種の記載なし); experiment: binding to podoplanin-displaying CHO cells; reference clone 1 scFv

B1: clone 1から作製したdiabody (protein)
chain: EVQLKESGGGLVQSGGSLRLSCAASGFSLTDYGVNWVRQAPGKGLEWVGVIWGGGNTYYNSALKSRFTISKDNSKNTLYLQMNSLRAEDTAVYYCAKHRGAWGQGTLVTVSAGGGGSDIVMTQSPSTLAVSLGEKATINCKSSKSLLNSGNQKNYLIWYQQKPGQPPKLLIYGASTRESGVPDRFSGSVSGTDFTLTISSLQAEDLAVYYCQNDHTYPLTFGQGTKVEIKRTV
[1]
  Kd: 1.7 nM
[2]
  fold increase of affinity against the scFv (clone 1): 100 fold
